2 molecules from PMC3538890 (Traffic (Copenhagen, Denmark), 2012) can be followed below.

The target in the assay is T1, CFP-GS27 (UniProt O14653 1-212).
T1 sequence (looked up): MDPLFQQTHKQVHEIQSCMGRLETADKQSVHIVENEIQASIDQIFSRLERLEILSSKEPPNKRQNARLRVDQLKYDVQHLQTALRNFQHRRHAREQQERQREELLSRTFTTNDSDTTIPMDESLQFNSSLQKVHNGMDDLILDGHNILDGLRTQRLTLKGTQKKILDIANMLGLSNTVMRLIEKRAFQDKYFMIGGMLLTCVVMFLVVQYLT
Briefly: co-IP.

B1: COG6-myc with deletion of residues 112-150 (natural protein, human, UniProt Q9Y2V7 1-657, looked up)
chain: MAEGSGEVVAVSATGAANGLNNGAGGTSATTCNPLSRKLHKILETRLDNDKEMLEALKALSTFFVENSLRTRRNLRGDIERKSLAINEEFVSIFKEVKEELESISEDVQAMQVADAFLSKFQLTSDEMSLLRGTREGPITEDFFKALGRVKQIHNDVKVLLRTNQQTAGLEIMEQMALLQETAYERLYRWAQSECRTLTQESCDVSPVLTQAMEALQDRPVLYKYTLDEFGTARRSTVVRGFIDALTRGGPGGTPRPIEMHSHDPLRYVGDMLAWLHQATASEKEHLEALLKHVTTQGVEENIQEVVGHITEGVCRPLKVRIEQVIVAEPGAVLLYKISNLLKFYHHTISGIVGNSATALLTTIEEMHLLSKKIFFNSLSLHASKLMDKVELPPPDLGPSSALNQTLMLLREVLASHDSSVVPLDARQADFVQVLSCVLDPLLQMCTVSASNLGTADMATFMVNSLYMMKTTLALFEFTDRRLEMLQFQIEAHLDTLINEQASYVLTRVGLSYIYNTVQQHKPEQGSLANMPNLDSVTLKAAMVQFDRYLSAPDNLLIPQLNFLLSATVKEQIVKQSTELVCRAYGEVYAAVMNPINEYKDPENILHRSPQQVQTLLS
B1: the “fold reduction of co-IP against full length COG6-myc” value was approximately 7 fold.

B2: COG6-myc with deletion of residues 76-112 (natural protein, human, UniProt Q9Y2V7 1-657, looked up)
chain: MAEGSGEVVAVSATGAANGLNNGAGGTSATTCNPLSRKLHKILETRLDNDKEMLEALKALSTFFVENSLRTRRNLNCCQDMTSRLQAAKEQTQDLIVKTTKLQSESQKLEIRAQVADAFLSKFQLTSDEMSLLRGTREGPITEDFFKALGRVKQIHNDVKVLLRTNQQTAGLEIMEQMALLQETAYERLYRWAQSECRTLTQESCDVSPVLTQAMEALQDRPVLYKYTLDEFGTARRSTVVRGFIDALTRGGPGGTPRPIEMHSHDPLRYVGDMLAWLHQATASEKEHLEALLKHVTTQGVEENIQEVVGHITEGVCRPLKVRIEQVIVAEPGAVLLYKISNLLKFYHHTISGIVGNSATALLTTIEEMHLLSKKIFFNSLSLHASKLMDKVELPPPDLGPSSALNQTLMLLREVLASHDSSVVPLDARQADFVQVLSCVLDPLLQMCTVSASNLGTADMATFMVNSLYMMKTTLALFEFTDRRLEMLQFQIEAHLDTLINEQASYVLTRVGLSYIYNTVQQHKPEQGSLANMPNLDSVTLKAAMVQFDRYLSAPDNLLIPQLNFLLSATVKEQIVKQSTELVCRAYGEVYAAVMNPINEYKDPENILHRSPQQVQTLLS
B2: the “fold reduction of co-IP against full length COG6-myc” value is approximately 7 fold.
